# Patent US20200353078A1 (AstraZeneca / MedImmune, published 2020)
# Changes are numbered by the printed parent chain.
# T1: Human IL-33 (Axxora/Adipogen AG-40B-0038) (human, UniProt O95760 112-270, limits assumed)
# T1 sequence (looked up): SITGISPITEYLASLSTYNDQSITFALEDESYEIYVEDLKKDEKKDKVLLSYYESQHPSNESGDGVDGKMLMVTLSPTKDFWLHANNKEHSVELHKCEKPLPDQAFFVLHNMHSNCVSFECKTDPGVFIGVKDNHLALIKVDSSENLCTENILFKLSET
# T2: His10/Avi Human IL33-01 (human)
# T2 chain: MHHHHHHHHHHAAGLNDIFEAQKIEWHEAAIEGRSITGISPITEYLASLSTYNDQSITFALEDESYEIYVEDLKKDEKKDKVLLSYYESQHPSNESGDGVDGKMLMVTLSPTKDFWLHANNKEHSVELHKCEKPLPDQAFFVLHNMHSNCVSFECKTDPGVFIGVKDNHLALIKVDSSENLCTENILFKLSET
# T3: Full-length human IL-33 (amino acids 1-270), HEK293-EBNA cell lysate (human, UniProt O95760 1-270)
# T3 sequence (looked up): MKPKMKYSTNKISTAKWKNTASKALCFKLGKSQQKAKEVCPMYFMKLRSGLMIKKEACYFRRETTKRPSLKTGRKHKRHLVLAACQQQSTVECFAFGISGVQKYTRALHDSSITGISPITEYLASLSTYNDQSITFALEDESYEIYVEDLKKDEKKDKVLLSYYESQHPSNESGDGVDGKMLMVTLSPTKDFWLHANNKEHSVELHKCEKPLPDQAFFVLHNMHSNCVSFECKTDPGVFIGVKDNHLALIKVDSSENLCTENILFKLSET
# T4: Recombinant human IL-33 (construct not named in the example) (human, UniProt O95760 112-270, limits assumed)
# T4 construct: also called Recombinant, enzymatically biotinylated human IL-33 (produced in-house); IL-33 (200 nM)
# T4 sequence (looked up): T1 sequence (looked up)
# T5: His10/Avi Cyno IL-33 (cynomolgus monkey)
# T5 construct: also called Cynomolgus 10His Avitag IL-33; biotinylated His Avi cynomolgus IL-33
# T5 chain: T2 chain with E77K, N94S, H118Q, M146R, H147S, S148F, S177Y, C182G, T183S, T193I
# B1: IL330377 IgG1 (antibody, V domains shown)
# VH: EVQLLESGGGLVQPGGSLRLSCAASGFTFSSYAMSWVRQAPGKGLEWVSASDMLYGSTYYADSVKGRFTISRDNSKNTLYLQMNSLRAEDTAVYYCSQNILGYFDSWGRGTLVTVSS
# VL: SYVLTQPPSVSVSPGQTARITCSGDALPKQYAHWYQQKPGQAPALVIYKDTERPSGIPERFSGSSSGTTVTLTISGVQAEDEADYYCQSADSTGYHRVFGGGTKVTVL
# B2: IL330398 IgG1 (antibody, V domains shown)
# VH: EVQLLESGGGLVQPGGSLRLSCAASGFTFSSYAMSWVRQAPGKGLEWVSASTPWQGSTYYADSVKGRFTISRDNSKNTLYLQMNSLRAEDTAVYYCVRWYWGWIDSWGRGTLVTVSS
# VL: B1 VL with Q88L, A90S, S92A, T93S, Y95A, H96S
# B3: IL330180 IgG (antibody, V domains shown)
# VH: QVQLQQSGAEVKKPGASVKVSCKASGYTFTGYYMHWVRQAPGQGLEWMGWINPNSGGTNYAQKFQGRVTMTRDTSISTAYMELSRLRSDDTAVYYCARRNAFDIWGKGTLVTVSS
# VL: QPVLTQPPSVSEAPRQRVTISCSGSSSNIGNNAVNWYQQLPGTAPKLLIYRNNQRPSGVPDRFSGSKSGTSASLAISGLRSEDEADYYCAAWDDSLSGWVFGGGTKVNVL
# B4: IL330377_fgl IgG1 (antibody, V domains shown)
# VH: B1 VH
# VL: B1 VL with V3E, T5M, A44V, V105L
# B5: IL330388_fgl IgG1 (antibody, V domains shown)
# VH: B2 VH
# VL: B1 VL with V3E, T5M, A44V, Q88M, A90S, S92P, T93S, Y95A, H96S, V105L
# B6: IL330396_fgl IgG1 (antibody, V domains shown)
# VH: B2 VH
# VL: B1 VL with V3E, T5M, A44V, Q88M, A90S, S92D, Y95A, H96S, V105L
# B7: IL330398_fgl IgG1 (antibody, V domains shown)
# VH: B2 VH
# VL: B1 VL with V3E, T5M, A44V, Q88L, A90S, S92A, T93S, Y95A, H96S, V105L
# B8: 33_640237 IgG1 (antibody, V domains shown)
# VH: EVQLLESGGGLVQPGGSLRLSCAASGFTFSSYAMSWVRQAPGKGLEWVSGIADDFTSTYYADPVKGRFTISRDNSKNTLYLQMNSLRAEDTAVYYCARDLWMMNYAGGLRYPFGYWGQGTTVTVSS
# VL: SYVLTQPPSVSVSPGQTASITCSGERMGDKYAAWYQQKPGQSPVLVIYRDTKRPSGIPERFSGSNSGNTATLTISGTQAIDEADYYCGVLKQDTGVFGGGTKVTVL
# notes: IgG1; also called ZZ1M37-E06
# B9: 33_640076-4 IgG1 (antibody, V domains shown)
# VH: B8 VH with A52S, D53A, D54I, F55D, T56Q, P63S, M103E, Y105W, A106V, T121M
# VL: B8 VL with I80M, G88E, L90K, Q92S
# notes: IgG1
# B10: 33_640086-6 IgG1 (antibody, V domains shown)
# VH: EVQLLESGGGLVQPGGSLRLSCAASGFTFSSYAMSWVRQAPGKGLEWVSGISGIDTSTYYADSVKGRFTISRDNSKNTLYLQMNSLRAEDTAVYYCARDKFMQLWGGGLRYPFGYWGQGTMVTVSS
# VL: B8 VL with I80M, G88E, L90K, K91V, Q92K
# notes: IgG1
# B11: 33_640082-7 IgG1 (antibody, V domains shown)
# VH: B10 VH with G53A, T56Q, D99Q
# VL: B8 VL with I80M
# notes: IgG1
# B12: 33_640082-6 IgG1 (antibody, V domains shown)
# VH: B10 VH with D99Q
# VL: B8 VL with I80M
# notes: IgG1
# B13: 33_640084-2 IgG1 (antibody, V domains shown)
# VH: B10 VH with T28A, G50A, I54S, D55G, T56G, D99Q
# VL: B8 VL with I80M, G88Q, L90W, K91R, Q92D, T94S, G95P, V96I
# notes: IgG1
# B14: 33_640001 Fab (Fab, V domains shown)
# VH: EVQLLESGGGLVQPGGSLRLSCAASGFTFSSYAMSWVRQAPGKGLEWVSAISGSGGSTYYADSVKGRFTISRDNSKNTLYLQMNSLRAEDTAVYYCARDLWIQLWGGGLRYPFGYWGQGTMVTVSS
# VL: B8 VL with R49Q, I80M, G88Q, L90W, K91D, Q92S, D93S
# notes: Fab made by papain cleavage of full length IgG1
# B15: 33_640087-7B Fab (Fab, V domains shown)
# VH: B10 VH with G53A, T56Q, D99Q
# VL: B8 VL with R26G, I80M, L90I, K91Q, Q92D, D93N, V103L
# notes: as for B14
# B16: 33_640050 Fab (Fab, V domains shown)
# VH: B10 VH with G50A, I54S, D55G, T56G, A97P, D99H
# VL: B8 VL with R49Q, I80M, G88Q, L90W, K91D, Q92S, D93S
# notes: as for B14
# B17: 33_640081 IgG1 (antibody, V domains shown)
# VH: B10 VH with L11S, S35N, G50A, I54S, D55G, T56G, Y59H, A97G, D99A, F113L
# VL: SYVLTQPPSVSVSPGQTASITCSGERMGDKYAAWYQQKPGQSPVLVIYQDTKRPSGIPERFSGSNSGNTATLTISGTQATDEADYYCQVWAADDTGVFGGGTKVTVL
# notes: IgG1; also called ZZ1JMB-H05
# Biological target: T1, Human IL-33 (Axxora/Adipogen …)
# Assay: cell-based or functional assay
row,"Huvec IL-6 production, maximum inhibition [%]",Binder
1,~70,B1
2,~70,B2

# Biological target: T1, Human IL-33 (Axxora/Adipogen …)
# Assay: cell-based or functional assay
# Remark: another data set of the same source
row,"IC50, Mast cell IL-6 production [nM]",Binder
1,22,B3

# Biological target: T1, Human IL-33 (Axxora/Adipogen …)
# Assay: cell-based or functional assay
# Remark: another data set of the same source
"IC50, Huvec IL-6 production [nM]","IC50, Mast cell IL-6 production [nM]",Binder
6.6,1.3,B4
2.1,1.2,B5
2.8,1.5,B6
1.5,0.9,B7

# Biological target: T2, His10/Avi Human IL33-01
# Assay: cell-based or functional assay
row,"IC50, Huvec IL-8 assay vs. His Avi IL-33 [nM]",Binder
1,0.056,B8
2,0.032,B9
3,0.026,B10
4,0.031,B11
5,0.03,B12
6,0.036,B13

# Biological target: T3, Full-length human IL-33 (amino acids …)
# Assay: cell-based or functional assay
row,"IC50, Huvec IL-8 assay vs. full length IL-33 cell lysate [nM]",Binder
1,0.091,B8
2,0.095,B9
3,0.081,B10
4,0.095,B11
5,0.097,B12
6,0.132,B13

# Biological target: T4, Recombinant human IL-33 (construct not …)
# Assay: SPR Biacore T100, 25 C, biotinylated human IL-33 on streptavidin C1 chip, Fab as analyte
# Procedure: Fab fragments were generated by papain cleavage from full length IgG1 and purified by SEC. […] Streptavidin was covalently immobilised to a C1 chip surface using standard amine coupling techniques at a concentration of […] in 10 mM Sodium acetate pH 4.5. […] Recombinant, enzymatically biotinylated human IL-33 (produced in-house) was titrated onto the streptavidin chip surface at […] in HBS-EP+ buffer to enable ˜30 RUs of Fab binding at saturation (Rmax). This low level of analyte binding ensured minimal mass transport effects.
# The IL-33 Fab was serially diluted from 5 nM to 78 pM in HBS-EP+ buffer and flowed over the chip at 50 μl/min, with 3 minutes association and up to 30 minutes dissociation. Multiple buffer only injections were made under the same conditions to allow for double reference subtraction of the final sensorgram sets, which were analysed using the BiaEval software (version 2.0.1). The chip surface was fully regenerated with pulses of 3M MgCl₂.
Kd [nM],koff [s⁻¹],kon [M⁻¹ s⁻¹],Binder
3.34,0.0326,9.76e+06,B14
0.00043,9.42e-06,2.2e+07,B15
0.0034,0.000105,3.08e+07,B16

# Biological target: T2, His10/Avi Human IL33-01
# Assay: HTRF epitope competition, IgG titrated; competitor DyLight labelled 33_640117 IgG; 1 hour
# Procedure: (§1) As the epitope competition assay utilising 33_640027 reached its limit of sensitivity, an assay using 33_640117 was used for testing purified scFv samples. The assay was essentially as described for the 33v20064 competition assay with the following modifications: 2.5 nM DyLight labelled 33_640117 was prepared and 2.5 microlitres added to the assay plates. This was followed by the addition of 2.5 microlitres of a solution containing 0.12 nM biotinylated human IL-33-01 combined with 0.75 nM streptavidin cryptate detection (Cisbio International, 610SAKLB) for the human assay or a solution containing 0.24 nM biotinylated cynomolgus IL-33 combined with 1.5 nM streptavidin cryptate detection (Cisbio International, 610SAKLB) for the cynomolgus assay. Fluorescence was read after one hour and overnight incubation.
# (§2) The ability of anti-IL-33 antibodies to inhibit the binding of biotinylated His Avi human IL-33 or cynomolgus His Avi IL-33 to the DyLight labelled 33_640117 IgG was assessed in a biochemical HTRF® (Homogeneous Time-Resolved Fluorescence, Cisbio International) competition assays as described above.
row,IC50 [nM],Binder
1,0.3,B17
2,0.1,B8
3,0.1,B9
4,0.1,B10
5,0.1,B11
6,0.1,B12
7,0.3,B13

# Biological target: T5, His10/Avi Cyno IL-33
# Assay: as above
# Procedure: as §1, §2
row,IC50 [nM],Binder
1,10,B17
2,1.8,B8
3,0.6,B9
4,0.2,B10
5,0.2,B11
6,0.2,B12
7,0.8,B13

# Biological target: T2, His10/Avi Human IL33-01
# Assay: HTRF epitope competition, IgG titrated; competitor DyLight labelled 33_640117 IgG; overnight
# Procedure: as §1, §2
row,IC50 [nM],Binder
1,0.6,B17
2,0.1,B8
3,0.1,B9
4,0.1,B10
5,0.1,B11
6,0.1,B12
7,0.3,B13
